Patent US20130130985A1

Assays:
Test in all cases: cell-based or functional assay
[1] = target: T1, human oxytocin receptor (human), P30559
T1 chain: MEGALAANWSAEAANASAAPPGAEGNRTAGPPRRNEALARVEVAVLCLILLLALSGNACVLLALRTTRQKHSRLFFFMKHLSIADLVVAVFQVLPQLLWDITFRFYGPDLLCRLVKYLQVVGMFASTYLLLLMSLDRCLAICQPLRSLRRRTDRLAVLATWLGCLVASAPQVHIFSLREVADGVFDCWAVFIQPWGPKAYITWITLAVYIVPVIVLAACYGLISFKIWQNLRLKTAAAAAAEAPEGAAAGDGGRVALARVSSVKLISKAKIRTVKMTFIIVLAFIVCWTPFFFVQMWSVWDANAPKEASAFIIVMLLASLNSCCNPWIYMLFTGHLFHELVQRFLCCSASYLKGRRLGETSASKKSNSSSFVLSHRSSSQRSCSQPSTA

[2] = target: T2, human vasopressin V1b receptor (human), P47901
T2 chain: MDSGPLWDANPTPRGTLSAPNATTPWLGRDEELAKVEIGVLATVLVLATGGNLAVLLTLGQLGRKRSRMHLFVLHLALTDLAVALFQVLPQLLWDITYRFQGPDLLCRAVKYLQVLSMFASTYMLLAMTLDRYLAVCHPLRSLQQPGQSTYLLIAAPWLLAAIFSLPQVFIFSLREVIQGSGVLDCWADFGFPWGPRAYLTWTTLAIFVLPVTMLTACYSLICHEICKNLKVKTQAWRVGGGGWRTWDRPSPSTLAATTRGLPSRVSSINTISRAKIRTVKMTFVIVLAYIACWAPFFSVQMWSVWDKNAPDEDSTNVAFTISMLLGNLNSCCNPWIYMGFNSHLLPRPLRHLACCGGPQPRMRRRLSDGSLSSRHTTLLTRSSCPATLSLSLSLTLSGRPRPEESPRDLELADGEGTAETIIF

[3] = target: human vasopressin V1a receptor (human), P37288
Sequence of human vasopressin V1a receptor (human), P37288 (P37288 whole entry): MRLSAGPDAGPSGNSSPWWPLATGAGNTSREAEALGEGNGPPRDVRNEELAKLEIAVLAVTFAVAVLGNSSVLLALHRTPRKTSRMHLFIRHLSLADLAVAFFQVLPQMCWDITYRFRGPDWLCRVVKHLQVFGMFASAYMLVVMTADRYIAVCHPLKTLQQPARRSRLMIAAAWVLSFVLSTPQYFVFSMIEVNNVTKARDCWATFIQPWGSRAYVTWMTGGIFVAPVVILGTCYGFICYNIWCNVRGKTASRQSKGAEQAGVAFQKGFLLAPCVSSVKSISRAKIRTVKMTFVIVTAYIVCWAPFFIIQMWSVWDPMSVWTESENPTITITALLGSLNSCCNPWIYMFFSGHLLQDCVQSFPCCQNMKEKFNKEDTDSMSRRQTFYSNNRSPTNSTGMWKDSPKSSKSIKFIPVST

[4] = target: human vasopressin V2 receptor (human), P30518

EC50, IP-One HTRF assay [1]: 400 nM | Emax, FLIPR calcium assay [1]: 89% | Emax, IP-One HTRF assay [1]: 72% | Emax, FLIPR calcium assay [2]: 92% | Emax, IP-One HTRF assay [2]: 96% | Emax, FLIPR calcium assay [3]: 100% | Emax, cAMP accumulation assay [4]: 134%
Binder: UYIQNUPLG (not fully specified; modifications not checked) [d[C1,6U]-OT]
